The source of these data is patent publication US20140315986, “APTAMERS THAT BIND TO IL-6 AND THEIR USE IN TREATING OR DIAGNOSING IL-6 MEDIATED CONDITIONS” (Otsuka Pharmaceutical Co., Ltd., published 2014).

The data set addresses IL-6 (mature human interleukin-6) (Homo sapiens, UniProt P05231 SEQ:1-184). Put plainly: cell_activity. The settings on record: tags: untagged, R&D Systems; biotinylated with NHS-PEO4-biotin for SELEX.

As usually defined, the IC50 is the concentration that gives 50% inhibition. Lower therefore signals inhibition by little substance.

Chain of IL-6 (mature human interleukin-6) (P05231 29-212): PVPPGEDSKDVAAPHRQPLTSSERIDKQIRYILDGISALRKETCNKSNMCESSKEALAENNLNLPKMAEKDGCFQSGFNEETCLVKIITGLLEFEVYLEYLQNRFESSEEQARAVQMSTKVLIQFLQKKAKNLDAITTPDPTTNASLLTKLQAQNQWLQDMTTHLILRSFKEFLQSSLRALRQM

B1: 2574-49_326 (ssDNA)
DNA: GGGUUAUGUAGCGUGCGUAAGGCGGU
modifications: G-G1-G-Nap1-Nap-A-Nap-G-Nap1-A-G-C-C3-C3-G-U1-G1-C-G-Nap1-A-A-G-G-C-G1-G1-Nap1 (1=2'-OMe)
In the case of B1, the midpoint of inhibition, the IC50, lay at 0.11 nM.

B2: 2574-49_338 (ssDNA)
DNA: GGGUUAUGUAGCGUGCGUAAGGCGGU
modifications: G-G1-G-Nap1-Nap2-A-Nap-G-Nap1-A-G-C-C3-C3-G1-U1-G1-C-G-Nap1-A-A-G-G-C-G1-G1-Nap1 (1=2'-OMe, 2=PS)
Regarding B2, the IC50 turned out to be 0.02 nM.

B3: 2573-20_780 (ssDNA)
DNA: GGCAGGUUUGGUAUUAACACGUUAAGUCGUGG
modifications: G-G-C1-A-G-G1-Bn-Bn-Pe2-G-G-Nap-A-Bn-Bn-A1-A-C-A1-C1-G-Bn-Bn2-A-A-G-Bn-C1-G-Bn2-G-G (1=2'-OMe, 2=PS)
The molecule B3 came in with an IC50 of 0.087 nM. Compared with the last molecule, the IC50 is about 4.3-fold higher.

B4: 2574-49_411 (ssDNA)
DNA: GGGUUAUGUAGCGUGCGUAAGGCGGU
modifications: G-G1-G-Nap1-Nap2-A2-Nap2-G-Nap1-A2-G1-C1-C3-C3-G1-U1-G1-C2-G2-Nap1-A2-A2-G2-G1-C2-G1-G1-Nap1 (1=2'-OMe, 2=PS)
B4 displayed an IC50 of 5.8 nM. This IC50 lies about 67-fold higher than the previous one.
